# Tests used:
# Assay type in all cases: biochemical, Homo sapiens
# Details in all cases: PAPS
# [1] = substrate: Oc1cccc2ccccc12; experiment: radiolabeled sulfonation assay, Km
# [2] = substrate: CC(C)(c1ccc(O)cc1)c1ccc(O)cc1; experiment: purified protein
# [3] = substrate: O=c1c(-c2ccc(O)cc2)coc2cc(O)cc(O)c12; experiment: purified protein
# [4] = substrate: O=c1c(-c2ccc(O)cc2)coc2cc(O)ccc12; experiment: purified protein
# [5] = substrate: O=c1cc(-c2ccc(O)cc2)oc2cc(O)cc(O)c12; experiment: purified protein
# [6] = substrate: O=c1cc(-c2ccc(O)cc2)oc2ccc(O)cc12; experiment: purified protein
# [7] = substrate: O=c1cc(-c2ccccc2)oc2cc(O)cc(O)c12; experiment: purified protein
protein,measurement,setting,value
human cytosolic sulfotransferase 1C4 (hSULT1C4) (Homo sapiens) (protein) MALHDMEDFTFDGTKRLSVNYVKGILQPTDTCDIWDKIWNFQAKPDDLLISTYPKAGTTWTQEIVELIQNEGDVEKSKRAPTHQRFPFLEMKIPSLGSGLEQAHAMPSPRILKTHLPFHLLPPSLLEKNCKIIYVARNPKDNMVSYYHFQRMNKALPAPGTWEEYFETFLAGKVCWGSWHEHVKGWWEAKDKHRILYLFYEDMKKNPKHEIQKLAEFIGKKLDDKVLDKIVHYTSFDVMKQNPMANYSSIPAEIMDHSISPFMRKGAVGDWKKHFTVAQNERFDEDYKKKMTDTRLTFHFQF,Km,[1],1.1 ± 0.2 µM
same,Km,[2],32.8 ± 3.2 µM
same,Km,[3],3.3 ± 0.3 µM
same,Km,[4],10.5 ± 1.1 µM
same,Km,[5],1.7 ± 1.0 µM
same,Km,[6],10.1 ± 2.1 µM
same,Km,[7],0.9 ± 0.4 µM

# Source: article PMC5608031
